Data from paper PMC6628623, “Effects of Destruxin A on Silkworm’s Immunophilins” (Toxins, 2019).
Where a SMILES comes first, the peptide text is derived from it. [ ]: non-standard residue; d: D form. dLac(3-vinyl) = C=CC[C@@H](O)C(=O)O; NMeV = CN[C@H](C(=O)O)C(C)C; NMeA = CN[C@@H](C)C(=O)O; βAla = NCCC(=O)O

Key:
[1] = target: Bmo.3174 (predicted B. mori cell division cycle 5-like protein, BmCDC5), DNA-binding-domain fusion (Bombyx mori (silkworm)); assay: two-hybrid; insect two-hybrid (I2H) in Spodoptera frugiperda Sf-9 cells co-transfected with AD, DBD and PIE-Luc vectors; luciferase read-out (lumen value) against untransfected Sf-9 cells (CK, 40); 27 °C
BmPPI = target: T1, BmPPI (Bombyx mori, UniProt Q1HQ20); assay: bio-layer interferometry, His-tagged protein on Ni-NTA biosensor; format: binding
T1 construct: cyclophilin superfamily
T1 sequence (Q1HQ20 1-171): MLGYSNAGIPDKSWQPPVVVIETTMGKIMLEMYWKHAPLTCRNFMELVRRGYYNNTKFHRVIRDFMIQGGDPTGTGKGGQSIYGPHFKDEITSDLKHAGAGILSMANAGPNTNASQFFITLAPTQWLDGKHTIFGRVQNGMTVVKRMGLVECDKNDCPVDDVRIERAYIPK
Source text: bio-layer interferometry, His-tagged protein on Ni-NTA biosensor on BmPPI

Work on “peptidyl-prolyl cis-trans isomerase (BmPPI), activation-domain fusion (natural protein)” yielded a lumen value (luciferase, I2H) [1] of 580.
`C=CC[C@H]1OC(=O)CCNC(=O)[C@H](C)N(C)C(=O)[C@H](C(C)C)N(C)C(=O)[C@H]([C@@H](C)CC)NC(=O)[C@@H]2CCCN2C1=O` [DA, Destruxin A] (cyclo(I[NMeV][NMeA][βAla][dLac(3-vinyl)]P)) gave a Kd (BmPPI) of 1980 µM.
